From article doi:10.1101/2020.04.16.045526

Biological target: HapR (Vibrio cholerae E7946 (El Tor), UniProt Q4F6W7 1-203)
Assay: EMSA

Row | Binder | binding result
1 | HapR BS 2 probe (32 bp) (dsDNA, Cy5-dCTP added to the 3' end of one strand by TdT (strand not stated)) DNA 1: AATTGCAATTGATAAATTTCTTGGCTAGGTGT DNA 2: ACACCTAGCCAAGAAATTTATCAATTGCAATT | binds
2 | HapR BS 1 probe (32 bp) (dsDNA, Cy5-dCTP added to the 3' end of one strand by TdT (strand not stated)) DNA 1: TAGGTTTGTTAGTGTTTACTTACTTATTTGGC DNA 2: GCCAAATAAGTAAGTAAACACTAACAAACCTA | binds
